Laboratory results as given in the supplement of paper PMC9112550, “Optimization of the antimicrobial peptide Bac7 by deep mutational scanning” (BMC Biology, 2022).

Test system: Escherichia coli TOP10
Test: shrunken log2 fold change of peptide-encoding DNA abundance (4.5 h post-induction vs induction); higher = less antimicrobial activity (less host growth inhibition)
Conditions: time post-induction: 4.5 h; library: site-saturation at positions 5, 18, 19, 20
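Further: peptides expressed intracellularly from a pBAD plasmid library in pooled LB shake-flask culture, induced with 0.3% L-arabinose, DNA abundance read by NGS, three biological replicates, DESeq2 with apeglm shrinkage.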

| Sequence | shrunken log2 fold change |
| --- | --- |
| RRIRTRPPRLPRPRPRPLHQPRP | 0.0302 |
| RRIRFRPPRLPRPRPRPLHSPRP | 0.12 |
| RRIRNRPPRLPRPRPRPDLLPRP | -0.0183 |
| RRIRFRPPRLPRPRPRPLFAPRP | 0.15 |
| RRIRSRPPRLPRPRPRPMLYPRP | 0.0575 |
| RRIRLRPPRLPRPRPRPPWIPRP | -0.35 |
| RRIRHRPPRLPRPRPRPGRFPRP | 0.314 |
| RRIRHRPPRLPRPRPRPSMMPRP | -0.407 |
| RRIRARPPRLPRPRPRPLMGPRP | 0.489 |
| RRIRPRPPRLPRPRPRPPAPPRP | 0.629 |
| RRIRTRPPRLPRPRPRPDCYPRP | -0.000691 |
| RRIRHRPPRLPRPRPRPWAKPRP | -0.235 |
| RRIRDRPPRLPRPRPRPEYWPRP | 0.0559 |
| RRIRDRPPRLPRPRPRPKRCPRP | 0.0311 |
| RRIRNRPPRLPRPRPRPAGAPRP | 0.665 |
| RRIRNRPPRLPRPRPRPGMMPRP | -0.247 |
| RRIRWRPPRLPRPRPRPNENPRP | -0.0342 |
| RRIRHRPPRLPRPRPRPGCKPRP | 0.229 |
| RRIRIRPPRLPRPRPRPVLPPRP | -0.242 |
| RRIRNRPPRLPRPRPRPWIMPRP | -1.05 |
| RRIRRRPPRLPRPRPRPRIMPRP | 0.0517 |
| RRIRYRPPRLPRPRPRPETHPRP | -0.863 |
| RRIRSRPPRLPRPRPRPAWMPRP | -0.263 |
| RRIRGRPPRLPRPRPRPTLPPRP | 0.574 |
| RRIRIRPPRLPRPRPRPIFHPRP | -0.411 |

| Sequence | shrunken log2 fold change |
| --- | --- |
| RRIRRRPPRLPRPRPRPEQCPRP | -0.00836 |
| RRIRLRPPRLPRPRPRPHEGPRP | -0.00992 |
| RRIRSRPPRLPRPRPRPGAKPRP | 0.513 |
| RRIRMRPPRLPRPRPRPLMVPRP | 0.396 |
| RRIRQRPPRLPRPRPRPTIAPRP | 0.0737 |
| RRIRVRPPRLPRPRPRPKKFPRP | -0.0429 |
| RRIRNRPPRLPRPRPRPMNTPRP | -0.421 |
| RRIRIRPPRLPRPRPRPVNLPRP | -0.116 |
| RRIRGRPPRLPRPRPRPKQEPRP | 0.0916 |
| RRIRSRPPRLPRPRPRPLNCPRP | -0.374 |
| RRIRARPPRLPRPRPRPPPLPRP | 1.84 |
| RRIRRRPPRLPRPRPRPLIVPRP | -0.0866 |
| RRIRERPPRLPRPRPRPRSFPRP | -0.331 |
| RRIRARPPRLPRPRPRPNHWPRP | 0.0522 |
| RRIRKRPPRLPRPRPRPWCVPRP | -0.00029 |
| RRIRGRPPRLPRPRPRPSNSPRP | -0.203 |
| RRIRERPPRLPRPRPRPNNMPRP | -0.713 |
| RRIRMRPPRLPRPRPRPHEMPRP | 0.0891 |
| RRIRCRPPRLPRPRPRPQCMPRP | -0.833 |
| RRIRDRPPRLPRPRPRPLKSPRP | 0.00491 |
| RRIRKRPPRLPRPRPRPCPVPRP | -0.106 |
| RRIRNRPPRLPRPRPRPWHAPRP | -0.0713 |
| RRIRTRPPRLPRPRPRPVGTPRP | -0.201 |
| RRIRMRPPRLPRPRPRPDTFPRP | 0.403 |
| RRIRDRPPRLPRPRPRPLDGPRP | 0.0131 |

| Sequence | shrunken log2 fold change |
| --- | --- |
| RRIRQRPPRLPRPRPRPMIVPRP | 0.000655 |
| RRIRNRPPRLPRPRPRPVDEPRP | 0.0158 |
| RRIRWRPPRLPRPRPRPVPMPRP | 0.221 |
| RRIRDRPPRLPRPRPRPKQCPRP | 0.101 |
| RRIRGRPPRLPRPRPRPFMPPRP | -0.0647 |
| RRIRMRPPRLPRPRPRPDYDPRP | 0.635 |
| RRIRVRPPRLPRPRPRPNEIPRP | -0.52 |
| RRIRLRPPRLPRPRPRPTICPRP | -0.176 |
| RRIRVRPPRLPRPRPRPMENPRP | -0.0625 |
| RRIRTRPPRLPRPRPRPQSIPRP | -0.125 |
| RRIRKRPPRLPRPRPRPYFCPRP | -0.288 |
| RRIRSRPPRLPRPRPRPEPPPRP | 0.662 |
| RRIRNRPPRLPRPRPRPFSVPRP | -0.678 |
| RRIRIRPPRLPRPRPRPMRQPRP | 0.3 |
| RRIRLRPPRLPRPRPRPEDEPRP | 0.00911 |
| RRIRVRPPRLPRPRPRPMDAPRP | 0.0377 |
| RRIRARPPRLPRPRPRPFEEPRP | 0.424 |
| RRIRMRPPRLPRPRPRPAIGPRP | 0.0174 |
| RRIRRRPPRLPRPRPRPIITPRP | -0.253 |
| RRIRGRPPRLPRPRPRPHPAPRP | 0.853 |
| RRIRPRPPRLPRPRPRPINQPRP | -0.24 |
| RRIRSRPPRLPRPRPRPASLPRP | -0.0507 |
| RRIRGRPPRLPRPRPRPTHDPRP | 1.72 |
| RRIRCRPPRLPRPRPRPFMAPRP | -0.15 |
| RRIRARPPRLPRPRPRPETWPRP | 0.369 |

| Sequence | shrunken log2 fold change |
| --- | --- |
| RRIRTRPPRLPRPRPRPYWQPRP | -0.435 |
| RRIRCRPPRLPRPRPRPGECPRP | 0.198 |
| RRIRPRPPRLPRPRPRPDSQPRP | -0.127 |
| RRIRMRPPRLPRPRPRPLTAPRP | 1.15 |
| RRIRNRPPRLPRPRPRPPCWPRP | 0.231 |
| RRIRTRPPRLPRPRPRPWGEPRP | 0.183 |
| RRIRERPPRLPRPRPRPHQCPRP | -0.262 |
| RRIRIRPPRLPRPRPRPAVTPRP | -0.322 |
| RRIRVRPPRLPRPRPRPLEHPRP | -0.22 |
| RRIRFRPPRLPRPRPRPNISPRP | -0.503 |
| RRIRIRPPRLPRPRPRPRRIPRP | -0.677 |
| RRIRTRPPRLPRPRPRPCSRPRP | -0.182 |
| RRIRYRPPRLPRPRPRPPVRPRP | 0.0631 |
| RRIRDRPPRLPRPRPRPPVVPRP | -0.0109 |
| RRIRKRPPRLPRPRPRPPMLPRP | 0.203 |
| RRIRARPPRLPRPRPRPPMIPRP | -0.172 |
| RRIRCRPPRLPRPRPRPRMNPRP | -0.096 |
| RRIRERPPRLPRPRPRPKCHPRP | -0.428 |
| RRIRYRPPRLPRPRPRPQMMPRP | -0.536 |
| RRIRRRPPRLPRPRPRPHECPRP | 0.0921 |
| RRIRGRPPRLPRPRPRPEDYPRP | 0.555 |
| RRIRTRPPRLPRPRPRPSIPPRP | -0.356 |
| RRIRPRPPRLPRPRPRPKEKPRP | 0.264 |
| RRIRWRPPRLPRPRPRPLPLPRP | 0.477 |
| RRIRFRPPRLPRPRPRPDHRPRP | 0.0119 |

| Sequence | shrunken log2 fold change |
| --- | --- |
| RRIRWRPPRLPRPRPRPEERPRP | 0.0923 |
| RRIRERPPRLPRPRPRPNIIPRP | -0.338 |
| RRIRVRPPRLPRPRPRPVYFPRP | -0.334 |
| RRIRHRPPRLPRPRPRPYCLPRP | -0.524 |
| RRIRERPPRLPRPRPRPIHVPRP | -0.274 |
| RRIRGRPPRLPRPRPRPYPAPRP | 0.497 |
| RRIRQRPPRLPRPRPRPYVDPRP | -0.431 |
| RRIRGRPPRLPRPRPRPECTPRP | 2.08 |
| RRIRGRPPRLPRPRPRPDGLPRP | 0.053 |
| RRIRVRPPRLPRPRPRPSIFPRP | -0.606 |
| RRIRCRPPRLPRPRPRPPLPPRP | 0.539 |
| RRIRNRPPRLPRPRPRPMLKPRP | -0.0393 |
| RRIRMRPPRLPRPRPRPNDFPRP | 0.0282 |
| RRIRRRPPRLPRPRPRPCERPRP | 0.137 |
| RRIRARPPRLPRPRPRPNLMPRP | -0.0139 |
| RRIRPRPPRLPRPRPRPSPNPRP | 1.14 |
| RRIRRRPPRLPRPRPRPEKSPRP | 0.0868 |
| RRIRHRPPRLPRPRPRPREDPRP | -0.0018 |
| RRIRRRPPRLPRPRPRPMDPPRP | 0.139 |
| RRIRGRPPRLPRPRPRPKYDPRP | 1.62 |
| RRIRYRPPRLPRPRPRPIPAPRP | -0.0717 |
| RRIRGRPPRLPRPRPRPYTHPRP | -0.426 |
| RRIRKRPPRLPRPRPRPIEIPRP | -0.0122 |
| RRIRERPPRLPRPRPRPFHLPRP | -0.173 |
| RRIRFRPPRLPRPRPRPFGMPRP | -0.223 |

| Sequence | shrunken log2 fold change |
| --- | --- |
| RRIRRRPPRLPRPRPRPNSWPRP | -0.0571 |
| RRIRCRPPRLPRPRPRPYHVPRP | -0.0591 |
| RRIRVRPPRLPRPRPRPKDGPRP | 0.0237 |
| RRIRTRPPRLPRPRPRPVQNPRP | 0.138 |
| RRIRTRPPRLPRPRPRPWDQPRP | -0.00674 |
| RRIRWRPPRLPRPRPRPEGIPRP | -0.00186 |
| RRIRQRPPRLPRPRPRPRQCPRP | 0.152 |
| RRIRKRPPRLPRPRPRPEGRPRP | 0.261 |
| RRIRMRPPRLPRPRPRPNTLPRP | -0.507 |
| RRIRVRPPRLPRPRPRPFFTPRP | 0.00087 |
| RRIRFRPPRLPRPRPRPNSQPRP | -0.496 |
| RRIRGRPPRLPRPRPRPLNIPRP | -0.148 |
| RRIRTRPPRLPRPRPRPKDVPRP | -0.0302 |
| RRIRSRPPRLPRPRPRPFHYPRP | -0.429 |
| RRIRDRPPRLPRPRPRPALDPRP | 1.05 |
| RRIRRRPPRLPRPRPRPEMGPRP | 0.626 |
| RRIRLRPPRLPRPRPRPGYYPRP | -0.166 |
| RRIRWRPPRLPRPRPRPKTAPRP | 0.203 |
| RRIRGRPPRLPRPRPRPHWLPRP | 0.14 |
| RRIRDRPPRLPRPRPRPIPEPRP | -0.138 |
| RRIRYRPPRLPRPRPRPQTDPRP | -0.274 |
| RRIRGRPPRLPRPRPRPSKIPRP | 0.149 |
| RRIRIRPPRLPRPRPRPLTQPRP | -0.648 |
| RRIRCRPPRLPRPRPRPMHCPRP | -0.107 |
| RRIRNRPPRLPRPRPRPLFRPRP | -0.266 |
